From paper PMC2120794

Target: type I collagen (triple helix)
Experiment: SPR
Conditions: scale: molecules of HSP47 per triple helix of type I collagen

stoichiometry N: > 7
B1: recombinant mouse HSP47 (natural protein)
chain: AEVKKPLEAAAPGTAEKLSSKATTLAERSTGLAFSLYQAMAKDQAVENILLSPLVVASSLGLVSLGGKATTASQAKAVLSAEKLRDEEVHTGLGELLRSLSNSTARNVTWKLGSRLYGPSSVSFADDFVRSSKQHYNCEHSKINFRDKRSALQSINEWASQTTDGKLPEVTKDVERTDGALLVNAMFFKPHWDEKFHHKMVDNRGFMVTRSYTVGVTMMHRTGLYNYYDDEKEKLQMVEMPLAHKLSSLIILMPHHVEPLERLEKLLTKEQLKAWMGKMQKKAVAISLPKGVVEVTHDLQKHLAGLGLTEAIDKNKADLSRMSGKKDLYLASVFHATAFEWDTEGNPFDQDIYGREELRSPKLFYADHPFIFLVRDNQSGSLLFIGRLVRPKGDKMRDEL
